Paper PMC10127185, “Low complexity domains of the nucleocapsid protein of SARS-CoV-2 form amyloid fibrils” (Nature Communications, 2023)

Target: the molecule itself
Assay: X-ray fiber diffraction

B1: NCAP central low complexity domain segment (construct LCD, residues 171–263) (domain or fragment)
chain: TFYAEGSRGGSQASSRSSSRSRNSSRNSTPGSSRGTSPARMAGNGGDAALALLLLDRLNQLESKMSGKGQQQQGQTVTKKSAAEASKKPRQKRT
notes: also called central LCD; LCD segment; not shown: 6xHis-SUMO, N-terminal, cleaved
  binding result: binds
